B1: murine AA amyloid (AA fibrils, amyloid enhancing factor extract or tissue deposits) (other, mouse, UniProt P05367 20-94, looked up)
chain: GFFSFIGEAFQGAGDMWRAYTDMKEAGWKDGDKYFHARGNYDAAQRGPGGVWAAEKISDARESFQEFFGRGHEDT
notes: Heterogeneous tissue-derived amyloid; also called Mouse AA (AEF); murine AA fibrils
B2: peptide 39, CGGHEDT (immunogen peptide EPRB-39) (peptide)
peptide: CGGHEDT
notes: also called p39; p#39
B3: murine monoclonal antibody 2A4 (antibody, V domains shown)
VH: EVQLVESGGRLVQPKGSLKLSCAASGFTFNTYAMYWIRQAPGKGLEWVARIRSKSNNYAIYYADSVKDRFTIFRDDSQSMLYLQMNNLKTEDTAMYYCVRPYSDSFAYWGQGTLVTVSA
VL: DVVMTQTPLSLPVSLGDQASISCRSSQSLVHSTGNTYLHWYLQKPGQSPKLLIYKVSNRFSGVPDRFSGSGSGTYFTLKISRVEAEDLGVYFCSQSTHVPFTFGGGTKLEIK
notes: Mouse IgG2b kappa; Used as hybridoma culture supernatant or protein A-purified mAb; also called mAb 2A4; 2A4.20.44.77
B4: murine monoclonal antibody 8G9 (antibody, mouse IgG2b, V domains shown)
VH: EVQLVESGGRLVQPKGSLKLSCAASGFTFNTYAMYWIRQAPGKGLEWVARIRSKSNNYAIYYADSVKDRFTIFRDDSQSMLYLQMNNLKTEDTAMYYCVRPYSDSFAYWGQGTLVTVSA
VL: DVVMTQTPLSLPVSLGDQASISCRSSQSLVHSTGNTYLHWYLQKPGQSPKLLIYKVSNRFSGVPDRFSGSGSGTYFTLKISRVEAEDLGVYFCSQSTHVPFTFGGGTKLEIK
notes: Mouse IgG2b kappa; also called mAb 8G9; 8G9.3.4.51.22
B5: murine monoclonal antibody 7D8 (antibody, mouse IgG2b, V domains shown)
VH: EVQLVESGGRLVQPKGSLKLSCAASGFTFNTYAMYWIRQAPGKGLEWVARIRSKSNNYAIYYADSVKDRFTIFRDDSQSMLYLQMNNLKTEDTAMYYCVRPYSDSFAYWGQGTLVTVSA
VL: DVVMTQTPLSLPVSLGDQASISCRSSLSLVHSTGNTYLHWYLQKPGQSPKLLIYKVSNRFSGVPDRFSGSGSGTYFTLKISRVEAEDLGVYFCSQSTHVPFTFGGGTKLEIK
notes: Mouse IgG2b kappa; also called mAb 7D8; 7D8.29.19.47
B6: peptide 41, GHEDTIADQE (peptide)
peptide: GHEDTIADQE
notes: also called p41; p#41
B7: human AA amyloid (renal AA amyloid extract or tissue deposits) (other, UniProt P0DJI8 19-94, looked up)
chain: RSFFSFLGEAFDGARDMWRAYSDMREANYIGSDKYFHARGNYDAAKRGPGGAWAAEVITDARENIQRFFGHGAEDS
notes: Heterogeneous tissue-derived amyloid; also called human renal AA amyloid extract; human AA amyloid extract

Columns and labels:
[1] = biological target: B5; assay: competition ELISA: mouse AA (AEF) in solution against adsorbed human AA amyloid extract, mAb 7D8
Experimental: (§1) To determine the effect, if any, of potential denaturation when adsorbed to the surface of the microtiter well, the reactivity of the 2A4, 8G9 and […] was evaluated using a competition ELISA in which murine or human AA amyloid extract was used as a soluble competitor for the interaction of the mAbs with surface-bound AA extract.
(§2) In general, the murine AA (AEF) extract was a better competitor than the human AA (Table 6).

[2] = biological target: B4; assay: competition ELISA: mouse AA (AEF) in solution against adsorbed human AA amyloid extract, mAb 8G9
Experimental: as §1, §2

[3] = biological target: B3; assay: competition ELISA: mouse AA (AEF) in solution against adsorbed human AA amyloid extract, mAb 2A4
Experimental: as §1, §2

[4] = biological target: B5; assay: SPR competition, 7D8 with p39 at 1 µg/mL over immobilized Vλ6 Wil fibrils
[5] = biological target: B3; assay: immunohistochemistry, supernatant (1:25) preincubated with peptide
[6] = biological target: B4; assay: immunohistochemistry with peptide inhibition, human ovarian tissue
[7] = biological target: B1; assay: ELISA, hybridoma culture supernatant on murine AA (AEF)
Source text: The interaction of 2A4, 8G9 and 7D8 mAbs with AA amyloid was initially tested by ELISA and the data, given in FIG. 31, analyzed using SigmaPlot (SPSS Inc.). Each point represents the mean±SE (n=3). A culture supernatant from an irrelevant hybridoma was used as a control (Ctrl Culture Sup). […] (In addition, the immunohistochemical reactivity of the day 1 material was greater than the day 2 samples). […] Because of the low signal and high variability found with the culture supernatants and to determine more accurately the relative binding affinity of the mAbs for murine and human AA amyloid fibrils (as well as to provide material for in vivo biodistribution studies) it was necessary to isolate the mAbs by protein A affinity chromatography. The purity of the isolated mAbs was established SDS-PAGE using 10% acrylamide gels under reducing and non-reducing conditions (FIG. 32). Samples in lanes 1-4 treated with mercaptoethanol, lanes 5-9 without. Gel was stained with Coomassie blue: mAb 8G9, lanes 1 and 6; mAb 2A4, lanes 2 and 7; mAb 7D8, lanes 3 and 8; SP2/0 control supernatant, lanes 4 and 9; blank, lane 5. Protein Mr markers (Std) are, form top to bottom: 176, 119, 75, 49, 39, 25 and 19 kDa. The interaction of the purified mAbs with immunizing peptide p#39, control peptide (p#41), murine and human AA extracts were determined by ELISA as described above.

[8] = biological target: B7; assay: ELISA, purified mAb on adsorbed human AA amyloid extract
Experimental: (§3) Protein Mr markers (Std) are, form top to bottom: 176, 119, 75, 49, 39, 25 and 19 kDa. The interaction of the purified mAbs with immunizing peptide p#39, control peptide (p#41), murine and human AA extracts were determined by ELISA as described above.
(§4) In contrast, even at the highest concentration of mAb used (100 nM) there was little detectable binding to the p#41 peptide (FIG. 33—Each point represents the mean±SE, (n=3 at each concentration)). […] The calculated EC50 values for the mAbs binding to mouse AA extract were essentially identical to those obtained when the p#39 peptide was used as the substrate (FIG. 34; Table 5). […] Because the EC50 value for 7D8 mAb binding was the lowest of the 3 antibodies tested, Applicants selected this reagent for in vivo co-localization and imaging studies. The 2 amino acid substitutions in the human SAA sequence with respect to the murine protein affected the EC50 values.

peptide 41, GHEDTIADQE = biological target: B6; assay: ELISA, purified mAb on adsorbed peptide 41
Experimental: as §3, §4

[9] = biological target: B1; assay: ELISA, purified mAb on adsorbed mouse AA (AEF)
Experimental: as §3, §4

peptide 67, CGGHEDA = biological target: T1, peptide 67, CGGHEDA; assay: BIAcore analysis of peptide binding
T1 peptide: CGGHEDA

peptide 64, CGGAEDT = biological target: T2, peptide 64, CGGAEDT; assay: BIAcore analysis of peptide binding
T2 peptide: CGGAEDT

peptide 40, CGGAEDS = biological target: T3, peptide 40, CGGAEDS; assay: BIAcore analysis of peptide binding
T3 peptide: CGGAEDS

[10] = biological target: B2; assay: ELISA, purified mAb on adsorbed peptide 39
[11] = biological target: B3; assay: immunohistochemistry, preincubation of 2A4 supernatant with peptide before staining murine AA amyloid
Source text: The reactivity of supernatants from hybridomas expressing antibodies 2A4, 8G9 and 7D8 to murine AA splenic and hepatic amyloid deposits (the principal sites of amyloid deposition) was documented immunohistochemically. For these studies, sections of tissue harvested from a TRIAD mouse with extensive AA amyloid in the liver and spleen (as evidenced by green birefringent Congophilic deposits) were stained with the mAb-containing supernatants. All 3 bound to the hepatic and splenic amyloid. In contrast, there was no reactivity with culture supernatants derived from irrelevant hybridomas. The capability of the amyloid using 2A4, 8G9 and 7D8 to immunostain amyloid in fresh (unfixed), OCT-embedded murine liver and spleen was tested. There was evidence that the mAbs retained their ability to bind AA amyloid in the hepatic sinusoid. In addition, the antibody reactivity with splenic tissue was easier to interpret, and the perifollicular amyloid was intensely immunostained. […] In contrast, the p#41 peptide was ineffective.

[12] = biological target: B3; assay: competition ELISA: human AA amyloid in solution against adsorbed mouse AA (AEF), mAb 2A4
Experimental: as §1, §2

[13] = biological target: B4; assay: competition ELISA: human AA amyloid in solution against adsorbed mouse AA (AEF), mAb 8G9
Experimental: as §1, §2

[14] = biological target: B5; assay: competition ELISA: human AA amyloid in solution against adsorbed mouse AA (AEF), mAb 7D8
Experimental: as §1, §2

Binder: B1
- IC50 [1]: 26.8 µg/mL
- IC50 [2]: 17.3 µg/mL
- IC50 [3]: 14.7 µg/mL

Binder: B2
- fold decrease in the extent of binding of 7D8 to Vλ6 Wil fibrils [4]: > 2 fold
- binding result [5]: binds
- binding result [6]: binds

Binder: B3
- dilution of culture supernatant after which reactivity is absent [7]: ~64 dilution factor (1:x)
- EC50 [8]: 26.4 nM
- EC50 (peptide 41, GHEDTIADQE): > 100 nM
- EC50 [9]: 4.09 nM
- binding result (peptide 67, CGGHEDA): binds
- binding result (peptide 64, CGGAEDT): binds
- binding result (peptide 40, CGGAEDS): binds
- EC50 [10]: 3.4 nM

Binder: B4
- dilution of culture supernatant after which reactivity is absent [7]: ~64 dilution factor (1:x)
- EC50 [8]: 31.7 nM
- EC50 (peptide 41, GHEDTIADQE): > 100 nM
- EC50 [9]: 5.64 nM
- EC50 [10]: 4 nM

Binder: B5
- dilution of culture supernatant after which reactivity is absent [7]: ~64 dilution factor (1:x)
- EC50 [8]: 13.3 nM
- EC50 (peptide 41, GHEDTIADQE): > 100 nM
- EC50 [9]: 1.84 nM
- binding result (peptide 67, CGGHEDA): binds
- binding result (peptide 64, CGGAEDT): binds
- binding result (peptide 40, CGGAEDS): binds
- EC50 [10]: 2.3 nM

Binder: B6
- binding result [11]: no binding (tested: 50 µg/mL)

Binder: B7
- IC50 [12]: > 212 µg/mL
- IC50 [13]: > 120 µg/mL
- IC50 [14]: > 881 µg/mL
